Patent publication US7947876B2 (Nippon Paper Industries Co., Ltd., priority 2004, dated 2011)
Ends that are not written are not given here.

System: mouse islet
Test: Thermal stability, activity measured by cAMP generation using mouse islet
Format: cell-based
Conditions: 15 min at 100° C.; for stability for thermal treatment (activity by cAMP generation): 10 μg/ml in 0.2% BSA solution, versus non-thermal treated control
Procedure: Further, trypsin treatment was performed, and a monomer GLP-1 derivative was obtained. […] To these thermal treated substances, non-thermal treated substances were prepared similarly as a control. Then, with respect to these substances, the activity was measured by cAMP generation using mouse islet. […] On the other hand, as the synthetic peptide was heat-stable, the 5 linked peptide expressed in rice was estimated to have changed by thermal denaturation to a tertiary structure which would not be easily digested by trypsin.

| Substance | stability for thermal treatment (activity by cAMP generation) | activity lower than that of non-thermally treated (cAMP generation) (rice in distilled water, then extraction and trypsin treatment, FIG. 8) |
| --- | --- | --- |
| synthetic native GLP-1: native GLP-1 obtained by synthesis [reference compound] | stable | – |
| [Ser^8,Gln^26, Asn^34]-GLP-1 (HSEGTFTSDVSSYLEGQAAQEFIAWLVNGR; ends and bridges not checked) [synthetic GLP-1 derivative] | stable | – |
| [Ser^8,Gln^26, Asn^34]-GLP-1 (HDEFERHSEGTFTSDVSSYLEGQAAQEFIAWLVNGRG; Glucagon-like peptide 1; UniProt P01275 92-128, looked up, variant A8S K26Q K34N) | – | about 33% |
